Measurements published in patent US20230090502.

Molecular target: Uncleaved SARS-CoV-2 3CLpro (N-terminal 6xHIS-tag followed by TEV-protease cleavage site)

B1: TEV-protease (New England Biolabs, includes a HIS-tag) (protein)
chain: GESLFKGPRDYNPISSTICHLTNESDGHTTSLYGIGFGPFIITNKHLFRRNNGTLLVQSLHGVFKVKNTTTLQQHLIDGRDMIIIRMPKDFPPFPQKLKFREPQREERICLVTTNFQTKSMSSMVSDTSCTFPSSDGIFWKHWIQTKDGQCGSPLVSTRDGFIVGIHSASNFTNTNNYFTSVPKNFMELLTNQEAQQWVSGWRLNADSVLWGGHKVFMSKPEEPFQPVKEATQLMNELVYSQ
  cleavage of the HIS-tag, SDS-PAGE: Cleavage of the 3CLpro was successful
